In US20130209454A1:

Legend:
Experiment in all cases: cell-based or functional assay
[1] = target: Env of HIV-1 strain BJOX028000.10.3 (HIV-1)
[2] = target: Env of HIV-1 strain BF1266.431a (HIV-1)
[3] = target: Env of HIV-1 strain Ce0393_C3 (HIV-1)
[4] = target: Env of HIV-1 strain 3365.v2.c2 (HIV-1)
[5] = target: HIV-1 Env of strain X1254_c3 (HIV-1)
[6] = target: HIV-1 Env of strain Q842.d12 (HIV-1)
[7] = target: HIV-1 Env of strain CNE30 (HIV-1)
[8] = target: Env of HIV-1 strain Ce2010_F5 (HIV-1)
[9] = target: HIV-1 Env of strain C3347.c11 (HIV-1)
[10] = target: HIV-1 Env of strain X1632_S2_B10 (HIV-1)
[11] = target: Env of HIV-1 strain P1981_C5_3 (HIV-1)
[12] = target: Env of HIV-1 strain TRJO4551.58 (HIV-1)
[13] = target: HIV-1 Env of strain Q461.e2 (HIV-1)
[14] = target: HIV-1 Env of strain T251-18 (HIV-1)
[15] = target: HIV-1 Env of strain 6240_08_TA5_4622 (HIV-1)
[16] = target: HIV-1 Env of strain CAAN5342.A2 (HIV-1)
[17] = target: HIV-1 Env of strain R1166.c01 (HIV-1)
[18] = target: HIV-1 Env of strain T278-50 (HIV-1)
[19] = target: HIV-1 Env of strain X2131_C1_B5 (HIV-1)
[20] = target: Env of HIV-1 strain HIV-001428-2.42 (HIV-1)
[21] = target: Env of HIV-1 strain R1166.c01 (HIV-1)
[22] = target: Env of HIV-1 strain TRO.11 (HIV-1)
[23] = target: HIV-1 Env of strain Ce0682_E4 (HIV-1)
[24] = target: Env of HIV-1 strain 3415.v1.c1 (HIV-1)
[25] = target: Env of HIV-1 strain MS208.A1 (HIV-1)
[26] = target: HIV-1 Env of strain HIV-001428-2.42 (HIV-1)
[27] = target: Env of HIV-1 strain 9004SS_A3_4 (HIV-1)
[28] = target: Env of HIV-1 strain 246F C1G (HIV-1)
[29] = target: HIV-1 Env of strain HIV-16845-2.22 (HIV-1)
[30] = target: HIV-1 Env of strain 928-28 (HIV-1)
[31] = target: HIV-1 Env of strain HIV-0013095-2.11 (HIV-1)
[32] = target: HIV-1 Env of strain 0815.v3.c3 (HIV-1)
[33] = target: HIV-1 Env of strain 9004SS_A3_4 (HIV-1)
[34] = target: Env of HIV-1 strain CAAN5342.A2 (HIV-1)
[35] = target: Env of HIV-1 strain CNE30 (HIV-1)
[36] = target: HIV-1 Env of strain 7030102001E5(Rev) (HIV-1)
[37] = target: HIV-1 Env of strain REJO4541.67 (HIV-1)
[38] = target: HIV-1 Env of strain 6041.v3.c23 (HIV-1)
[39] = target: HIV-1 Env of strain X2088_c9 (HIV-1)
[40] = target: HIV-1 Env of strain 6811.v7.c18 (HIV-1)
[41] = target: HIV-1 Env of strain P1981_C5_3 (HIV-1)
[42] = target: Env of HIV-1 strain Ce2060_G9 (HIV-1)
[43] = target: HIV-1 Env of strain 1012_11_TC21_3257 (HIV-1)
[44] = target: HIV-1 Env of strain CAP210.2.00.E8 (HIV-1)
[45] = target: Env of HIV-1 strain 1006_11_C3_1601 (HIV-1)
[46] = target: Env of HIV-1 strain 231966.c02 (HIV-1)
[47] = target: Env of HIV-1 strain Ce1172_H1 (HIV-1)
[48] = target: Env of HIV-1 strain Q23.17 (HIV-1)
[49] = target: Env of HIV-1 strain Q461.e2 (HIV-1)
[50] = target: Env of HIV-1 strain CNE53 (HIV-1)
[51] = target: HIV-1 Env of strain Ce2060_G9 (HIV-1)

Sequence of NIH45-46 (antibody) (VH): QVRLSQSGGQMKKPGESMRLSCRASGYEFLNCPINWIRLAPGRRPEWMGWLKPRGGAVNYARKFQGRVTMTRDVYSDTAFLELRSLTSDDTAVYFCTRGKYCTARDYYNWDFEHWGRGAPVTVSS
Sequence of NIH45-46 (antibody) (V domain): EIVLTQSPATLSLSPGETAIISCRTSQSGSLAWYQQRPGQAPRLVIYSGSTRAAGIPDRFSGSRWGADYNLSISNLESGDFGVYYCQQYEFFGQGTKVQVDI

NIH45-46 (antibody)
IC80 [1]: > 50 µg/mL
IC80 [2]: 0.03 µg/mL
IC80 [3]: 0.936 µg/mL
IC80 [4]: 0.11 µg/mL
IC50, pseudovirus neutralization [5]: 0.032 µg/mL
IC50, pseudovirus neutralization [6]: 0.031 µg/mL
IC50, pseudovirus neutralization [7]: 0.309 µg/mL
IC80 [8]: 0.357 µg/mL
IC50, pseudovirus neutralization [9]: 0.029 µg/mL
IC50, pseudovirus neutralization [10]: 0.07 µg/mL
IC80 [11]: 0.24 µg/mL
IC80 [12]: 0.13 µg/mL
IC50, pseudovirus neutralization [13]: 0.076 µg/mL
IC50, pseudovirus neutralization [14]: 1.35 µg/mL
IC50, pseudovirus neutralization [15]: 0.44 µg/mL
IC50, pseudovirus neutralization [16]: 0.15 µg/mL
IC50, pseudovirus neutralization [17]: 0.31 µg/mL
IC50, pseudovirus neutralization [18]: > 50 µg/mL
IC50, pseudovirus neutralization [19]: 0.23 µg/mL
IC80 [20]: 0.01 µg/mL
IC80 [21]: 1.21 µg/mL
IC80 [22]: 7.49 µg/mL
IC50, pseudovirus neutralization [23]: 0.054 µg/mL
IC80 [24]: 0.086 µg/mL
IC80 [25]: 0.6 µg/mL
IC50, pseudovirus neutralization [26]: 0.001 µg/mL
IC80 [27]: 0.65 µg/mL
IC80 [28]: > 50 µg/mL
IC50, pseudovirus neutralization [29]: 5 µg/mL
IC50, pseudovirus neutralization [30]: 0.23 µg/mL
IC50, pseudovirus neutralization [31]: 0.01 µg/mL
IC50, pseudovirus neutralization [32]: 0.014 µg/mL
IC50, pseudovirus neutralization [33]: 0.18 µg/mL
IC80 [34]: 0.4 µg/mL
IC80 [35]: 1.07 µg/mL
IC50, pseudovirus neutralization [36]: 0.14 µg/mL
IC50, pseudovirus neutralization [37]: 0.014 µg/mL
IC50, pseudovirus neutralization [38]: 0.006 µg/mL
IC50, pseudovirus neutralization [39]: > 50 µg/mL
IC50, pseudovirus neutralization [40]: 0.035 µg/mL
IC50, pseudovirus neutralization [41]: 0.08 µg/mL
IC80 [42]: 0.29 µg/mL
IC50, pseudovirus neutralization [43]: 0.01 µg/mL
IC50, pseudovirus neutralization [44]: > 50 µg/mL
IC80 [45]: 0.196 µg/mL
IC80 [46]: 9.64 µg/mL
IC80 [47]: > 50 µg/mL
IC80 [48]: 0.5 µg/mL
IC80 [49]: 0.291 µg/mL
IC80 [50]: 0.039 µg/mL
IC50, pseudovirus neutralization [51]: 0.058 µg/mL
